Assay results: the nanobody polyreactivity screen of Harvey et al. (2022)

Experiment: yeast display, Sf9 membrane polyspecificity reagent, FACS + sequencing; frameworks hold sequencing errors
In short: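 In a synthetic yeast display library (Saccharomyces cerevisiae BJ5465), nanobody expression was induced with galactose for 36–48 hours. FACS gates were set low and high (top ~1%) using anti-HA fluorescence for expression and streptavidin fluorescence for binding of the Sf9 membrane reagent. Each polyreactivity label is drawn from the gate of origin.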

Sequence	polyreactivity (PSR sort gate)
QVQLVESGGGLVQAGGSLRLSCAASGSIFYRYALGWYRQAPGKERELVAALSYSGGSTYYADSVKGRFTISRDNAKNTVYLQMNSLKPQETAVYYCANDSPPPISDYSRYYGYGYWGQGTQVTVSS	low polyreactivity
QVQLVESGGGLVQAGGSLRLSCAASGSIFYRYAMGWNRQAPGKEKELVAAISRSGGRTYYADSVKGRFTISRDNAMNTVYLQMNSLKPEDTAVYYCAAESTVGTDLGGYSWGQGSQVTVSS	high polyreactivity
QVQLVESGGGLVQAGGSLRLSCAASGSIFYRYAMGWYRQAPGKERELVAAINDSGGGTYYADSVKGRFTISRDNAKNTVYLQMNSLKPEDTAVYYCAAATHNKHTARDDYWGQGTQVTVSS	low polyreactivity
QVQLVESGGGLVQAGGSLRLSCAASGSIFYRYAMGWYRQAPGKERELVAAISTAGSTNYADSVKGRFTISRDNAKNTVYLQINSPKPEDTAVYYCAAKSYRGRTQRSYGYWGQGTQVTVSS	low polyreactivity
QVQLVESGGGLVQAGGSLRLSCAASGSIFYRYAMGWYRQAPGKERELVAGITRGGSTNYADSVKGRFTISRDNAKNTVYLQMNSLKPEDTAVYYCAARSYVYVHYYYWGQGTQVTVSS	high polyreactivity
QVQLVESGGGLVQAGGSLRLSCAASGSIFYRYAMGWYRQAPGKVRELVAAISSGSSTHYADSVKGRFTISRDNAKNTVYLQMNSLKPEDTAVYYCAARYRAYTSTRRFDYWGQGTQVTVSS	high polyreactivity
QVQLVESGGGLVQAGGSLRLSCAASGSIFYSNAMGWYRQAPGKERELVAAIRRSGGSTYYADSVKGRFTISRDNAKNTVYLQMNSLKPEDTEVYYCAARYSGTYSFYLSVGSRGYNYWGQGTQVTVSS	high polyreactivity
QVQLVESGGGLVQAGGSLRLSCAASGSIFYSNTMGWYRQAPGKERELVAAISRGGSTYYADSVKGRFTISRDNAKNTVYLQMNSLKPEDTAVYYCAARYRWAPAYDYWGQGTQVTVSS	high polyreactivity
QVQLVESGGGLVQAGGSLRLSCAASGSIFYSYAMGWYRQAHGKERELVAAITSGDITYYADSVKGRFTISRDNAKNTVYLQMNSLKPEDTAVYYCAAESYAWWDKQFLYRYDYWGQGTQVTVSS	low polyreactivity
QVQLVESGGGLVQAGGSLRLSCAASGSIFYSYAMGWYRQAPGKEREFVAAISQLGGSTYYADSVKGRFTISRDNAKNTVYLQMNSLKPEDTAVYSCNAVYRRAQFLYGYDYWGQGTQVTVSS	high polyreactivity
QVQLVESGGGLVQAGGSLRLSCAASGSIFYSYAMGWYRQAPGKERELVAAISWDASTYYADSVKGRFTISRDNAKNTVYLQMKSLKTEDTAVYYCNADIPYYFVFDAYDYWGQGTQVTVSS	low polyreactivity
QVQLVESGGGLVQAGGSLRLSCAASGSIFYSYAMGWYRQAPGKERELVAAITSNAGGITRYADSVKGRFTISRDNAKNTVYLQMNSLKPEDTAVYYCAARGHYYTRYWGQGTQVTVSS	high polyreactivity
QVQLVESGGGLVQAGGSLRLSCAASGSIFYSYAMGWYRQAPGKERELVADITITGSTYYADSVKGRFTISRDNAKNTVYLQMNSLKPEDTAVYYCTAVLAPGGYDYWGQGTQVTVSS	low polyreactivity
QVQLVESGGGLVQAGGSLRLSCAASGSIFYTNAMGWYRPAPGKERELVAAIRWSGGRTYYADSVKGRFTISRDNAKNTVYLQMNSLKPEDTAVYYCNVVVRYPSAYDYWGQGTQVTVSS	high polyreactivity
QVQLVESGGGLVQAGGSLRLSCAASGSIFYTNAMGWYRQAPGKEREFVAGITRRGTSTNYADSVKGRFTISRDKAKNTVYLQMNSQKPEDTAVYYCNARYYLYWGQGTQVTVSS	low polyreactivity
QVQLVESGGGLVQAGGSLRLSCAASGSIFYTNAMGWYRQAPGKERELVAVITASGGSTYYADSVKGRFTISRDNAKNTVYLQMNSLKPEDTSVYYCAADPVFNYDYWGQGTQVTVSS	low polyreactivity
QVQLVESGGGLVQAGGSLRLSCAASGSIFYTNVMGWYRQAPGKERELVAAISSRGGSTYYADSVKGRFTISRDNAKNTVYLQMNSLKPEDTAVYYCAARFLHYYPTRGYTYDYWGQGTQVTVSS	high polyreactivity
QVQLVESGGGLVQAGGSLRLSCAASGSIFYTYAMGWYRQAPWKEREFVAASTGTGVRTYYADSVKGRFTISRDNAKNTVYLPMNSLKPEDTAVYYCAAVSAYRWIGLTNYSTYGYWGQGTQVTVSS	high polyreactivity
QVQLVESGGGLVQAGGSLRLSCAASGSIFYVNAMGWYRQAPGKDRELVAAISVRGGRTYYADSVKGRFTISRDNAKNTVYLQLNSLKPEDTAVYYCATRISTVGRYDYWGQGTQVTVSS	high polyreactivity
QVQLVESGGGLVQAGGSLRLSCAASGSIFYVYAMGWYRQAPGKERELVAAINTAGGSTFYADSVKGRFTISRDNAKNPVSLQMTSLKPEETAVYYCAAERYRYRSTDTMGYWGQGTQVTVSS	low polyreactivity
QVQLVESGGGLVQAGGSLRLSCAASGSIFYVYAMGWYRQAPGKERELVAAITNYADSVKGRFTISRDNAKNTVYLQMNSLKPEDTAVSYCAADWWRVEMDYWGQGTQVTVSS	low polyreactivity
QVQLVESGGGLVQAGGSLRLSCAASGSIFYVYAMGWYRQAPGKERELVADITTRDGDTYYADSVKGRFTISRDNAKNTVYLQMNSLKPVDTAVYYCAADLNAYPQRAYDYWGQGTQLTVSS	low polyreactivity

Sequence	polyreactivity (PSR sort gate)
QVQLVESGGGLVQAGGSLRLSCAASGSIFYVYVMGWYRPAPGKERELVAGITSGGSTYYADSVKGRFTISRDNAKNTVYFQMNSLKPEDTAVYFCAADLYYWGDYDYWGQGSQVTVSS	low polyreactivity
QVQLVESGGGLVQAGGSLRLSCAASGSIFYVYVMGWYRQAPGKERELVAAIDTGGGDTYYADSVKGRFTISRDNAKNTVYLQMNSLKPEDTAVYYCSTSGPQYYSRNFDYWGQGTQVTVSS	low polyreactivity
QVQLVESGGGLVQAGGSLRLSCAASGSIFYWNVMGWYRQAPGKERELVAGISTSVGNTYYADSVKGRFTISRDNAKNTVYLQMNSLKPEDTAVYYCNVAGKQKPYYVTTRLDYWGQGTQVTVSS	high polyreactivity
QVQLVESGGGLVQAGGSLRLSCAASGSIFYWYAMGWYRQAPGKERELVAAISGSGGTTYYADSVKGRFTISRDNAKNTVYLQMNSLKPEDTAVYYCATRGWYLGSRGYRTRYGYWGQGTQVTVSS	high polyreactivity
QVQLVESGGGLVQAGGSLRLSCAASGSIFYWYAMGWYRQAPGKERELVAAISSGGSTNYADSVKGRFTISRDNAKNTVYLQMNSLKPEDTSVYYCNADIRSFYCEYYTGLDSWGQGTQVTVSS	low polyreactivity
QVQLVESGGGLVQAGGSLRLSCAASGSIFYWYAMGWYRQAPGKERELVAAITYSGDRTYYADSVKGRFTISRDNAKNTVYLQMNSLKPEDTAVYYCAKDRGSGPLDYWGQGTQVTVSS	low polyreactivity
QVQLVESGGGLVQAGGSLRLSCAASGSIFYYFALGWYRQAPGTERELVAAISRSGGRTYYADSVKGRFTISRDNAKNPVYLHMNSLKPEDTAFYYCNTDGYYTTAKYGYWGQGTQVTVSS	high polyreactivity
QVQLVESGGGLVQAGGSLRLSCAASGSIFYYNAKGWYTQAPGKERELVAVISYRSGRTSDADSVKGRFTISRDNAKNTVYLQMNSLKPEDTAVYYCATRDWWRYRHTGVIKFDYWGQGTQVSVSS	high polyreactivity
QVQLVESGGGLVQAGGSLRLSCAASGSIFYYNALGWYRQAPGKERELVAVISYRSGRTSYADSVKGRFTISRDNAKNTVYLQMNSLKPEDTAVYYCNAKPAVSFSRHYYRYDYWGQGTQVTVSS	high polyreactivity
QVQLVESGGGLVQAGGSLRLSCAASGSIFYYNAMGWYRQAPGKERELVAAISSDGGTYYADSVKGRFTISRDNAKNTVYLQMNSLKPEDTAVYYCNAEVFWWDQWYDYWGQGTQVTVSS	high polyreactivity
QVQLVESGGGLVQAGGSLRLSCAASGSIFYYNAMGWYRQAPGKERELVAVISYRSGRTSYADSVKGRFTISRDNAKNTVYLQMNSLKPEDTAVYYCIAKPAVSFSRHYYRYDYWGQGTQVTVSS	high polyreactivity
QVQLVESGGGLVQAGGSLRLSCAASGSIFYYNTMGWYRQAPGKAREFVADISVNGGSTYYADSVKGRFTISRDNAKNTVYLQMNSLKPEDSAVYYCAARRYQRPHGLYGYWGQGTQVTVSS	low polyreactivity
QVQLVESGGGLVQAGGSLRLSCAASGSIFYYYAIGWYRKAPGKEREFVATIRRSGASTYYADSVKGRFTISRDNAKNTVYLQMNSLKPEDTAVYYCNAASARRPIYEAARWSKYDYWGQGTQVTVSS	low polyreactivity
QVQLVESGGGLVQAGGSLRLSCAASGSIFYYYAMARYRPAPGKERELVASITSSGGTTSYADSVKGRFRISRDNAKNTVYLQMISLKPEDTAVYYCNAQVYRYRIGYDYWGQGTQVTVSS	low polyreactivity
QVQLVESGGGLVQAGGSLRLSCAASGSIFYYYAMGWYRQAPGKERELVAAITSGGSTYYADSVKGRFTISRDNAKNTVYYQMNSLIPEDTAVYYCAAVFYAAYLRYVWYSYDYWGQGTQVTVSS	low polyreactivity
QVQLVESGGGLVQAGGSLRLSCAASGSIFYYYAMGWYRQAPGKERELVAAITYRGTRTYYADSVKGRFTISRDNAKNTVYLLMNSLKPEDTAVYYCAAERRIYSSDSWGQGTQVTVSS	high polyreactivity
QVQLVESGGGLVQAGGSLRLSCAASGSIFYYYAMGWYRQAPGKERELVASISSSGSTNYADSVKGRFTISRDNAKNTVYLLMKRLKPEDTAVYYCYADLSLGSYYSYYAYNSWGQGTQVTVSS	low polyreactivity
QVQLVESGGGLVQAGGSLRLSCAASGSIFYYYSMGWYRQAPGKERELVATISSTTSTYADSVKGRFTISRDNAKNTVYLQMNSLKPEDTAVYYCSYDYWGQGTQVTVSS	low polyreactivity
QVQLVESGGGLVQAGGSLRLSCAASGSIGVNAMGWYRQAPGKERELVATISNSGGSTYYADSVKGRFTISRDNAKNTVYLQINSLKPEDTAVYYCAVAVTSYSSKKLYYWGQGTQVTVSS	low polyreactivity
QVQLVESGGGLVQAGGSLRLSCAASGSIGYYAMGWYRQAPGKERELVAAIDWSGGDTYYADSVKGRFTISRDNAKNTVYLQMNSLKPEDTAVYYCAKRLYLKTCAASSADDYWGQGTQVTVSS	low polyreactivity
QVQLVESGGGLVQAGGSLRLSCAASGSIIASNAMGWYRHAPWKERELVAAITNGGRTNYADSVKGRFTISRDNAKNTVYLQMNSMKPEDTAVYYCDALWSRCAGFEYCGQGTQVTVSS	high polyreactivity
